Source: patent publication US20240190939A1 (SHATTUCK LABS, published 2024)
Each block holds one binder with its values, some of them ahead of it.

Legend:
CD47-His = molecular target: T1, CD47-His; assay: ELISA: CD47-His capture, IgG detection
T1 construct: ELISA capture protein used with both murine and human chimeras

[1] = molecular target: T2, mouse CD47 on CHO-K1 cells (mouse, UniProt Q61735 19-303); assay: flow cytometry on CHO-K1 cells expressing murine CD47
T2 construct: whole, on cells; also called mCD47 engineered cell line; mCD47 over-expressing cell line
T2 sequence (looked up): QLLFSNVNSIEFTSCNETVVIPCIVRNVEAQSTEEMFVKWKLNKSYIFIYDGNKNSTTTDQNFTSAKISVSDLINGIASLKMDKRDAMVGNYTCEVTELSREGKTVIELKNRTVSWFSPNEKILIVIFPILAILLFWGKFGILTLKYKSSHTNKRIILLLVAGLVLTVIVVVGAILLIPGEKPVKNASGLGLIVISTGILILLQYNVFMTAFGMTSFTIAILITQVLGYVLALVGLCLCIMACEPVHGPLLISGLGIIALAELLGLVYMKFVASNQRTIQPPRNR

NECTIN4 = molecular target: T3, NECTIN4 (human, UniProt Q96NY8); assay: microarray of about 6,000 human membrane proteins
T3 construct: on the microarray of human membrane proteins; also called Nectin Cell Adhesion Molecule 4
T3 sequence (looked up): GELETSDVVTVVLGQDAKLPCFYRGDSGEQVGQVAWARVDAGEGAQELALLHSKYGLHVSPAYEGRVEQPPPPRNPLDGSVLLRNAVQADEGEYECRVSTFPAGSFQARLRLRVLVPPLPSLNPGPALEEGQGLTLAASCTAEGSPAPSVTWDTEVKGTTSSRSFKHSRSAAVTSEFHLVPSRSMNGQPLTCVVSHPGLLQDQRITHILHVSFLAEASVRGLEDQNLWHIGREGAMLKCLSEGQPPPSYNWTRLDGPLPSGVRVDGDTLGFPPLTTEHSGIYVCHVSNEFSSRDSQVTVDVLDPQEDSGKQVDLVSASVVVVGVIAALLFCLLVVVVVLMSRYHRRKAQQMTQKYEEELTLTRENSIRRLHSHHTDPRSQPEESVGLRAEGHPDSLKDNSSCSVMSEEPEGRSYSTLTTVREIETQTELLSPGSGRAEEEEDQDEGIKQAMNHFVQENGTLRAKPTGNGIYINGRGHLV

TNFRSF4 = molecular target: T4, TNFRSF4; assay: microarray of about 6,000 human membrane proteins
T4 construct: also called TNF Receptor Superfamily Member 4
T4 chain: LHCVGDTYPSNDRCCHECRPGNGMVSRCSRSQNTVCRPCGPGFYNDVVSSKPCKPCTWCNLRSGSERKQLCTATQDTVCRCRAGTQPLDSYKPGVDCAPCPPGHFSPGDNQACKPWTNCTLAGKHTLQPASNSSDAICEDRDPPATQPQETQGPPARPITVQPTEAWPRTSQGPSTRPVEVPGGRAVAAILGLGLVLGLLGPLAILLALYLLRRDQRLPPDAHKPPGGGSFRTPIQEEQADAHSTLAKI

Galectin-1 = Galectin-1 (human, UniProt P09382 2-135, limits assumed); assay: microarray of about 6,000 human membrane proteins
Chain of Galectin-1 (P09382 2-135 limits assumed): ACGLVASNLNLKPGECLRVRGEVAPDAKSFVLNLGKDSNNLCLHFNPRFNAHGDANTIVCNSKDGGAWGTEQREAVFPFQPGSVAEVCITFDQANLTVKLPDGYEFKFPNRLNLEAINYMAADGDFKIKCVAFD

PVR = molecular target: T5, PVR (human, UniProt P15151); assay: microarray of about 6,000 human membrane proteins
T5 construct: on the microarray of human membrane proteins; also called Poliovirus Receptor
T5 sequence (looked up): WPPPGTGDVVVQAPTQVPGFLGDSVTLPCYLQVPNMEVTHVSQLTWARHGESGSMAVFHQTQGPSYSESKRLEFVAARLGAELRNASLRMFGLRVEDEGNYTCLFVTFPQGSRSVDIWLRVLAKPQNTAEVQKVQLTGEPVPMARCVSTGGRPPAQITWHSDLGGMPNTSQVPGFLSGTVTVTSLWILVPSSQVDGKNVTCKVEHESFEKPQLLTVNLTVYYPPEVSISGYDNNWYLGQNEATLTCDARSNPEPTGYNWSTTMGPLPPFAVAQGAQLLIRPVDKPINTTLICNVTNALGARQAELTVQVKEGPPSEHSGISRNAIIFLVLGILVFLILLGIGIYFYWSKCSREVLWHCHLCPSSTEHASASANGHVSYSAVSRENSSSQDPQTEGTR

[2] = molecular target: T6, recombinant human CD155PVR (human, UniProt P15151 21-343, limits assumed); assay: biolayer interferometry (Octet), hPVR; concentration not given
T6 sequence (looked up): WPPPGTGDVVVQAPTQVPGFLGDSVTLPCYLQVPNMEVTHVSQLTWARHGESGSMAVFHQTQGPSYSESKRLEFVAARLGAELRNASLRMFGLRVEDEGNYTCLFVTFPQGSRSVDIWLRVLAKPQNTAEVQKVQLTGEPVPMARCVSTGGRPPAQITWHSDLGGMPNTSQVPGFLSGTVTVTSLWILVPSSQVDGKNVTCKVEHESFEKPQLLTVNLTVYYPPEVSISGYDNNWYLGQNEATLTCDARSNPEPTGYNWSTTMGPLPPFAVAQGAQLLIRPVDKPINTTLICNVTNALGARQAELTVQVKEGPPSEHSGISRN

hCD155-Fc [3] = molecular target: T7, hCD155-Fc (human, UniProt P15151 21-343, limits assumed); assay: ELISA as printed: CD155-Fc capture, goat anti-hOX40L detection, anti-goat HRP (legend says CD155PVR-His capture, IgG detection)
T7 construct: not shown: Fc, not identified
T7 sequence (looked up): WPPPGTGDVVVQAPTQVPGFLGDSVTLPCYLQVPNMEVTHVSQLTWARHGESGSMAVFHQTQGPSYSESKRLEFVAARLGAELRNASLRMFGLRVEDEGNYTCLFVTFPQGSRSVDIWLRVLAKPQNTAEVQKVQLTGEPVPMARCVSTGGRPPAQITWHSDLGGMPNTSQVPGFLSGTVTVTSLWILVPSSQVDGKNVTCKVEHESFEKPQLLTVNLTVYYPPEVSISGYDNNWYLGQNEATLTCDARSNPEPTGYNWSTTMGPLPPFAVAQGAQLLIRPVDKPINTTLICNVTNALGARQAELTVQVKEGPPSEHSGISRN

hCD155-Fc [4] = molecular target: T7, hCD155-Fc; assay: Dual ELISA: hCD155-Fc capture, hLTBR-His detection, 6x His HRP
human LTBR-His = molecular target: T8, human LTBR-His (human, UniProt P36941 31-227, limits assumed); assay: as above
T8 construct: also called hLTBR-His
T8 sequence (P36941 31-227 limits assumed): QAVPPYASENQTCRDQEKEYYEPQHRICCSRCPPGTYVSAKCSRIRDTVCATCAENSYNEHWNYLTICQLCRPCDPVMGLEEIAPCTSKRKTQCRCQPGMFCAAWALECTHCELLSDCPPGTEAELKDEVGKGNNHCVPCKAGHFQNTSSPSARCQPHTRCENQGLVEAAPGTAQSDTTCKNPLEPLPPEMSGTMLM

recombinant human LTbR = recombinant human LTbR (human, UniProt P36941 31-227, limits assumed); assay: biolayer interferometry (Octet), human LTbR
Chain of recombinant human LTbR (P36941 31-227 limits assumed): as above

[5] = molecular target: T9, mouse OX40 on CHO-K1 cells (mouse, UniProt P47741 20-272); assay: flow cytometry on CHOK1-mOX40 cells
T9 construct: whole, on cells; also called CHOK1-mOX40
T9 sequence (looked up): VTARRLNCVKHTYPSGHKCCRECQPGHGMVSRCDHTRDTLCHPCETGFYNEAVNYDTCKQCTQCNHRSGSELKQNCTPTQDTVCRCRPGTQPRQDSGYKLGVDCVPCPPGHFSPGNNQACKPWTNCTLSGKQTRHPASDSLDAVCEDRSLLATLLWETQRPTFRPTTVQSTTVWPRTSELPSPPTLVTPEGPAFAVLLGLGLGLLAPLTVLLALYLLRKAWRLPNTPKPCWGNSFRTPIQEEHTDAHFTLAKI

[6] = molecular target: T10, mouse PVR on CHO-K1 cells (mouse); assay: flow cytometry on CHOK1/PVR cells
T10 construct: whole, on cells; also called CHOK1/PVR; mPVR engineered cell line

CD155PVR-His = molecular target: T11, CD155PVR-His; assay: ELISA: 'CD115/PVR Capture' as printed (legend: CD155PVR-His), Fc-HRP detection
T11 construct: ELISA capture protein used with both murine and human chimeras; also called CD155-His

OX40-Fc = molecular target: T12, OX40-Fc; assay: Dual ELISA: OX40-Fc capture, CD155-His detection, 6X His HRP (signal needs both OX40-Fc and CD155-His bound)
T12 construct: Capture protein of the dual ELISA

- EC50 (read off the curve) (CD47-His): ~4 nM
- EC50 [1]: 18 nM
B1: murine CD172a(SIRPα)-Fc-LIGHT chimeric protein (Fc fusion)
chain 1: KELKVTQPEKSVSVAAGDSTVLNCTLTSLLPVGPIRWYRGVGPSRLLIYSFAGEYVPRIRNVSDTTKRNNMDFSIRISNVTPADAGIYYCVKFQKGSSEPDTEIQSGGGTEVYVLAKPSPPEVSGPADRGIPDQKVNFTCKSHGFSPRNITLKWFKDGQELHPLETTVNPSGKNVSYNISSTVRVVLNSMDVNSKVICEVAHITLDRSPLRGIANLSNFIRVSPTVKVTQQSPTSMNQVNLTCRAERFYPEDLQLIWLENGNVSRNDTPKNLTKNTDGTYNYTSLFLVNSSAHREDVVFTCQVKHDQQPAITRNHTVLGFAHSSDQGSMQTFPDNNATHNWN
chain 2: LHQRLGDIVAHLPDGGKGSWEKLIQDQRSHQANPAAHLTGANASLIGIGGPLLWETRLGLAFLRGLTYHDGALVTMEPGYYYVYSKVQLSGVGCPQGLANGLPITHGLYKRTSRYPKELELLVSRRSPCGRANSSRVWWDSSFLGGVVHLEAGEEVVVRVPGNRLVRPRDGTRSYFGAFMV

- binding result (NECTIN4): binds
- binding result (TNFRSF4): binds
- binding result (Galectin-1): binds
- binding result (PVR): binds
- binding result [2]: binds
- binding result (hCD155-Fc [3]): binds
B2: human TIGIT-Fc-OX40L chimeric protein (Fc fusion)
chain: MMTGTIETTGNISAEKGGSIILQCHLSSTTAQVTQVNWEQQDQLLAICNADLGWHISPSFKDRVAPGPGLGLTLQSLTVNDTGEYFCIYHTYPDGTYTGRIFLEVLESSVAEHGARFQIPSKYGPPCPPCPAPEFLGGPSVFLFPPKPKDQLMISRTPEVTCVVVDVSQEDPEVQFNWYVDGVEVHNAKTKPREEQFNSTYRVVSVLTVLHQDWLSGKEYKCKVSSKGLPSSIEKTISNATGQPREPQVYTLPPSQEEMTKNQVSLTCLVKGFYPSDIAVEWESNGQPENNYKTTPPVLDSDGSFFLYSRLTVDKSRWQEGNVFSCSVLHEALHNHYTQKSLSLSLGKIEGRMDQVSHRYPRIQSIKVQFTEYKKEKGFILTSQKEDEIMKVQNNSVIINCDGFYLISLKGYFSQEVNISLHYQKDEEPLFQLKKVRSVNSLMVASLTYKDKVYLNVTTDNTSLDDFHVNGGELILIHQNPGEFCVL
notes: also called hTIGIT-Fc-OX40L

- binding result [2]: binds
- binding result (hCD155-Fc [4]): binds
- binding result (human LTBR-His): binds
- binding result (recombinant human LTbR): binds
B3: human TIGIT-Fc-LIGHT chimeric protein (Fc fusion)
chain: MMTGTIETTGNISAEKGGSIILQCHLSSTTAQVTQVNWEQQDQLLAICNADLGWHISPSFKDRVAPGPGLGLTLQSLTVNDTGEYFCIYHTYPDGTYTGRIFLEVLESSVAEHGARFQIPSKYGPPCPPCPAPEFLGGPSVFLFPPKPKDQLMISRTPEVTCVVVDVSQEDPEVQFNWYVDGVEVHNAKTKPREEQFNSTYRVVSVLTVLHQDWLSGKEYKCKVSSKGLPSSIEKTISNATGQPREPQVYTLPPSQEEMTKNQVSLTCLVKGFYPSDIAVEWESNGQPENNYKTTPPVLDSDGSFFLYSRLTVDKSRWQEGNVFSCSVLHEALHNHYTQKSLSLSLGKIEGRMDLQLHWRLGEMVTRLPDGPAGSWEQLIQERRSHEVNPAAHLTGANSSLTGSGGPLLWETQLGLAFLRGLSYHDGALVVTKAGYYYIYSKVQLGGVGCPLGLASTITHGLYKRTPRYPEELELLVSQQSPCGRATSSSRVWWDSSFLGGVVHLEAGEKVVVRVLDERLVRLRDGTRSYFGAFMV
notes: also called hTIGIT-Fc-LIGHT; hTIGIT-1-Fc-LIGHT

- EC50 [5]: 1.7 nM
- EC50 [6]: 4.63 nM
- EC50 (read off the curve) (CD155PVR-His): ~4 nM
- EC50 (read off the curve) (OX40-Fc): ~8 nM
B4: murine TIGIT-Fc-OX40L chimeric protein (Fc fusion)
chain 1: TIDTKRNISAEEGGSVILQCHFSSDTAEVTQVDWKQQDQLLAIYSVDLGWHVASVFSDRVVPGPSLGLTFQSLTMNDTGEYFCTYHTYPGGIYKGRIFLKVQESSDDRNGLAQFQTAPLG
chain 2: SSSPAKDPPIQRLRGAVTRCEDGQLFISSYKNEYQTMEVQNNSVVIKCDGLYIIYLKGSFFQEVKIDLHFREDHNPISIPMLNDGRRIVFTVVASLAFKDKVYLTVNAPDTLCEHLQINDGELIVVQLTPGYCAPEGSYHSTVNQVPL
